We go through one molecule from publication doi:10.1101/2020.12.22.423932 (bioRxiv, 2020).

The test deals with mono-ubiquitin (UniProt P0CG48 1-76). The test is described as follows: MST.

B1: human α5 subunit, wild type, recombinant (natural protein)
chain: MFLTRSEYDRGVNTFSPEGRLFQVEYAIEAIKLGSTAIGIQTSEGVCLAVEKRITSPLMEPSSIEKIVEIDAHIGCAMSGLIADAKTLIDKARVETQNHWFTYNETMTVESVTQAVSNLALQFGEEDADPGAMSRPFGVALLFGGVDEKGPQLFHMDPSGTFVQCDARAIGSASEGAQSSLQEVYHKSMTLKEAIKSSLIILKQVMEEKLNATNIELATVQPGQNFHMFTKEELEEVIKDI
modifications: labelled with RED-NHS 2nd Generation dye
For B1, binding was put at a Kd of 57.7 µM. This lies in the double-digit micromolar range.
